In the DeepSol protein solubility set:

Assay: soluble on expression in E. coli; label from the status in PepcDB or PDB records

Row | Sequence | soluble on expression in E. coli
1 | MTRLPDIKKEVRFNAPIEKVWEAVSTSEGLAFWFMENDLKAETGHHFHLQSPFGPSPCQVTDVERPIKLSFTWDTDGWSVTFHLKEEENGTIFTIVHSGWKQGDTKVEKAGAESAVVHERMDRGWHDLVNERLRQIVELEHHHHHH | soluble
2 | MQDFDFSFNPKACEGCGAKCCVGESGYIFLNIQEMQQISAFLKLELEEFSQKYVKKVGYKFSLLEKDAKELGLACVFLDLETKKCQIYSVRPKQCQTFPFWEGVKTFSKEQKEAFCQSCPGITQKTKETKVRLEHHHHHH | not soluble
3 | MSLGEFVFKGLLQEKGWIENAVVKTNDFGVITSIKSDPERKDGCDYAIPGFQNAHSHAFQYAMAGLAELHSTSKTKNDFWSWRKIMYDLALNITPDQMEDIATMLYKEMLRHGYTHVAEFHYLHHDLSGEKYNNCSEMGERIIAAAKRAGIKLTLVPIFYQNGGFGRKAENEQRRFISSSFNDYKNLVEASISSSKNYEHSSVAYGIHSMRAVSAENIIKLSEQKENGAPFHIHVSEQLKEIEDSVAFLGLRPVDWLSENIDLNPDYHLVHATHLTQNEIESIAKSQANVVLCPSTEGNLGDGIFPLNEFLKHGGKWSIGTDSHVGLNPFEELRILDYGQRLISHNRNTFGNNISGDNGNIAISSALVNGRKAMGIEQTHYFEVGKSFDALIISDQHPLIQTVSLKNLTNTLVYSSDNSMYKGTIVNGDWKIKDGQHADDNIHADFIQTLNALKVREGHHHHHH | soluble
4 | TLLHPLLMRNGDSRPLHKPTTPLPSLDLLTPPPSEVEPVDTFALEQMARLVEARLADFRIKADVVNYSPGPVITRFELNLAPGVKAARISNLSRDLARSLSTVAVRVVEVIPGKPYVGLELPNKKRQTVYLREVLDNAKFRDNPSPLTVVLGKDIAGEPVVADLAKMPHLLVAGTTGSGASVGVNAMILSMLYKAQPEDVRFIMIDPKMLELSVYEGIPHLLTEVVTDMKDAANALRWCVNEMERRYKLMSALGVRNLAGYNEKIAEADRMMRPIPDPYWKPGDSMDAQHPVLKKEPYIVVLVDEFADLMMTVGKKVEELIARLAQKARAAGIHLVLATQRPSVDVITGLIKANIPTRIAFTVSSKIDSRTILDQAGAESLLGMGDMLYSGPNSTLPVRVHGAFVRDQEVHAVVQDWKARGRPQYVDGITSDSESEGGAGGFDGAEELDPLFDQAVQFVTEKRKASISGVQRQFRIGYNRAARIIEQMEAQGIVSEQGHNGNREVLAPPPFD | soluble
5 | MEFEFIKNTLLGEYAVRCNMEHQIVGRWLQEEIGQDLAKLKHVLTLIDKAEQSPAQEFLWTGREISLLVQGDEITVQENALAYESEHELETDFALYDSESIAACGREDFVALLTQWQSFIQNQGRF | not soluble
6 | MCMNKKRIYKFRRFLARKLDFPSDAVMYTPRINISVTGDEEITIENYRGIVEFSDENIKVNTEVGTISIDGKNFEIVFISGSTIILGGKFKTIAYGGDKNEALEHHHHHH | soluble
7 | MSLIGFLSDRQGFEKQYHDIDLSSFGIREGISEIIASTGFEHPNAAPIGIVMKGERPFVRLFKGSHTWENVLKEKCLASNVVYDPILFVRSTFSDLVPSEFEYVDAGEFKFPVLKEAIAWVVFECINLRNTDQSLVADLVPLNAGFNERNIKELPVPNRGFNAVLEATVHATRYQLTGEEKYLELIRHYESLASKCGGDAEKKAMKLIYEALGLEGHHHHHH | soluble
8 | MTATQGKCPVMHGGATTVNISTAEWWPKALNLDILSQHDRKTNPMGPDFNYQEEVQKLDAALKQDLQALMTDSQDWWPADWGHYGGLMIRLTWHAAGTYRIADGRGGAGTGNQRFAPLNSWPDNTNLDKARRLLWPIKQKYGNKLSWADLIAYAGTIAYESMGLKTFGFAFGREDIWHPEKDIYWGPEKEWFPPSTNPNSRYTGDRELENPLAAVTMGLIYVNPEGVDGNPDPLKTAHDVRVTFARMAMNDEETVALTAGGHTVGKCHGNGNAALLGPEPEGADVEDQGLGWINKTQSGIGRNAVTSGLEGAWTPHPTQWDNGYFAVCSLNYDWELKKNPAGAWQWEPINPREEDLPVDVEDPSIRRNLVMTDADMAMKMDPEYRKISERFYQDPAYFADVFARAWFKLTHRDMGPKARYIGPDVPQEDLIWQDPIPAGNRNYDVQAVKDRIAASGLSISELVSTAWDSARTYRNSDKRGGANGARIRLAPQKDWEGNEPDRLPKVLAVLEGISAATGATVADVIVLAGNVGVEQKARAAGVEIVLPFAPGRGDATAEQTDTESFAVLEPIHDAIATGSSRTMRQRLKNCCLIATQLLGLTAPEMTVLIGGLRVLGTNHGGTKHVVFTDREGVLTNDFFVNLTDMNYLWKPAGKNLYEICDRKTNQVKWTATRVDLVFGSNSILRAYSELYAQDDNKEKFVRDFVAAWTKVMNADRFDLD | soluble
9 | MSLTAPLPYTRAANLPALLRERILILDGAMGTMIQRYKLTEAQYRGERFASHPVDVKGNNELLLLTRPEVIREIHEQYLAAGADLIETNTFGATTVAQEDYKMAELAYEMNVVAARLAREACDKYSTPDKPRFVAGAFGPTPKTASISPDVNDPGARNISFDQLRDAYYEQGKALLEGGADVFLVETIFDTLNAKAALFAIDQLFEDSGERVPVMISGTVTDASGRILSGQTVEAFWNSLRHAKPITFGLNCALGAALMRPYIAELAKICDTAVSCYPNAGLPNPMSDTGFDETPEVTSSLVDEFAAAGLVNLVGGCCGTTPEHIRAIAERVAQRKPRAWPGQYREAAEGHHHHHH | soluble
10 | MGSDKIHHHHHHMEEQREILEQLKKTLQMLTVEPSKNNQIANEEKEKKENENSWCILEHNYEDIAQEFIDFIYKNPTTYHVVSFFAELLDKHNFKYLSEKSNWQDSIGEDGGKFYTIRNGTNLSAFILGKNWRAEKGVGVIGSHVDALTVKLKPVSFKDTAEGYGRIAVAPYGGTLNELWLDRDLGIGGRLLYKKKGTNEIKSALVDSTPLPVCRIPSLAPHFGKPAEGPFDKEDQTIPVIGFPTPDEEGNEPPTDDEKKSPLFGKHCIHLLRYVAKLAGVEVSELIQMDLDLFDVQKGTIGGIGKHFLFAPRLDDRLCSFAAMIALICYAKDVNTEESDLFSTVTLYDNEEIGSLTRQGAKGGLLESVVERSSSAFTKKPVDLHTVWANSIILSADVNHLYNPNFPEVYLKNHFPVPNVGITLSLDPNGHMATDVVGTALVEELARRNGDKVQYFQIKNNSRSGGTIGPSLASQTGARTIDLGIAQLSMHSIRAATGSKDVGLGVKFFNGFFKHWRSVYDEFGEL | not soluble
11 | MSLQKTSFALLVAALQLASASALAATPPVADAIWFNGPIITIDDQHPKAQAVAVKDGKILAVGDRQHVLKNKGPATQMLDLKGATLLPGFVDPHGHVSMVGFQAASANLLPPPDGTNNSIPGLQETLRRFEQQSPIPKQFGVLFGFGYDDSQLQEQRHPTKADLDAVTRDLPIAIVHQSSHLGVLNSKALELAGIDASTPNPEGGVIRRVDGSQEPNGVLEENAFFNALIRIFPKLTADQAVDMLSAGQKLYVSYGYTTIQDGRSSPDQVKTAIKAAGDGKLLADIVSYPDILTPGVKQLMVAPWYHPSNQPVVYNQHFRIGGVKLTLDGSPQGKTAWLSQPYFKPPQGQDASYAGYGVVKDADALAIYKEALANRWQILSHTNGDRAIDQLLGSMRAAEQAYPGVDVRPVMIHGQTLRKDQVAELKQLKIFPSLFPMHTYYWGDWHRQSVLGPERAENISPTQWVLQAGMKFTTHHDAPVALPDSMRVLAATVNRTTRSGYVLGPDQRVTPLQALKAMTLWSAYQHFEEDRKGSITPGKLADFAVLSANPLTVKPETLSEIQVLKTVKEGRVIYERPAKVASEGHHHHHH | soluble
12 | MSLSMSTIAKVAARAGVSPTTVSHVINHSDRVSKPLRERVEAAIKDLGYKPNPQAQSLRTGRTNIVAMLIPDIRNPFYPELVKAAQSELEVAGLDMLIFNTDVPGGQSQDHGREYLRQIGNKRVDGLIVGDFALHGMHDALMRVETPTVFIGNLPNHAVDCVRIDDFGGGYQMGAYLAGKGHRRIAHVTGPSFFAEAMSRADGFEQGLADHGATPDPGLRFEGSYLAPSGKAAAEWLLAGHGGDLPSAVFFGNYLMAAGALAEFYDRGIRIPDDFKVAVFGDQPQLEYVRPRLTRVGNAPAELARRATRMLLERINGTYEGEPRSEVVSCVLREFETEGHHHHHH | soluble
